In patent US6344321 one finds Kd data, which are given here for two sequences.

The series addresses HGF (hepatocyte growth factor/scatter factor) (UniProt P14210+P14210). Put plainly: filter. To be noted: 2'-F pyrimidines.

Chain of HGF (hepatocyte growth factor/scatter factor) (P14210 32-494, chain 1 of 2): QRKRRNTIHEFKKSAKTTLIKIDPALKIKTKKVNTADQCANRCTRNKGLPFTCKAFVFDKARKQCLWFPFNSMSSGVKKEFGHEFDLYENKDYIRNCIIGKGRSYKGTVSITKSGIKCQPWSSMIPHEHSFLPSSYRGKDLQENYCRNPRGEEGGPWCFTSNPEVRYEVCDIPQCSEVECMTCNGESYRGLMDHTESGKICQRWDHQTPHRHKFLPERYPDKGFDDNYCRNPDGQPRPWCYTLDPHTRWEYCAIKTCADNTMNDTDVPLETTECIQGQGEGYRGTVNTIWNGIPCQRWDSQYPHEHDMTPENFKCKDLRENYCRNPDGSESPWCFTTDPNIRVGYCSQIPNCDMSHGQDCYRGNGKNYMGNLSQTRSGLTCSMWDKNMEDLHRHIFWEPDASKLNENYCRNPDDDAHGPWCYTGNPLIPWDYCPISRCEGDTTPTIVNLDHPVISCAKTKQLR
Chain of HGF (hepatocyte growth factor/scatter factor) (P14210 495-728, chain 2 of 2): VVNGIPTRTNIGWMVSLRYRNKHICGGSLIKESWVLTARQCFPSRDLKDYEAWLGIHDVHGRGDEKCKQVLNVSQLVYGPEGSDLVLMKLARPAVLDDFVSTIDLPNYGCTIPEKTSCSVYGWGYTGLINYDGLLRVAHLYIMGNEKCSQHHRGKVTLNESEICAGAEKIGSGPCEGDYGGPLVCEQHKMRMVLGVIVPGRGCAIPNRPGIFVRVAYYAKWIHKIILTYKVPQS

On to “GGAGAGNUCCUAUUUAUGACAUCCCAUGCCCCCA [Tr65]”, for which the Kd (one or two 5' G, one N in printed sequence) worked out at 1.4 nM. “GGGAGGACGAUGCGGNNNNNNNNNNNNNNNNNNNNNNNNNNNNNNCAGACGACUCGCCCGA [random 30N7 pool]” registered a Kd (random pool, 550 nM with competitor tRNA) of 1.6 nM.

The Kd is the constant that tells how readily two partners part at equilibrium. A high value points to weaker binding.
